Read-outs that look alike come from different tables or passages of the source.

The source of these data is publication PMC5760271.

What all share (test): limited trypsin proteolysis
The target in data set [1] is T1, FnoCas9 (Francisella tularensis novicida, UniProt A0Q5Y3 1-1629).
For data set [2], the target named is T2, SpyCas9 (Streptococcus pyogenes, UniProt Q99ZW2 1-1368).
Data set [3] concerns the target T1, FnoCas9. The source holds these as a separate data set.
Data set [4] deals with T2, SpyCas9. This is another data set of the same source.

T2 sequence (Q99ZW2 whole entry): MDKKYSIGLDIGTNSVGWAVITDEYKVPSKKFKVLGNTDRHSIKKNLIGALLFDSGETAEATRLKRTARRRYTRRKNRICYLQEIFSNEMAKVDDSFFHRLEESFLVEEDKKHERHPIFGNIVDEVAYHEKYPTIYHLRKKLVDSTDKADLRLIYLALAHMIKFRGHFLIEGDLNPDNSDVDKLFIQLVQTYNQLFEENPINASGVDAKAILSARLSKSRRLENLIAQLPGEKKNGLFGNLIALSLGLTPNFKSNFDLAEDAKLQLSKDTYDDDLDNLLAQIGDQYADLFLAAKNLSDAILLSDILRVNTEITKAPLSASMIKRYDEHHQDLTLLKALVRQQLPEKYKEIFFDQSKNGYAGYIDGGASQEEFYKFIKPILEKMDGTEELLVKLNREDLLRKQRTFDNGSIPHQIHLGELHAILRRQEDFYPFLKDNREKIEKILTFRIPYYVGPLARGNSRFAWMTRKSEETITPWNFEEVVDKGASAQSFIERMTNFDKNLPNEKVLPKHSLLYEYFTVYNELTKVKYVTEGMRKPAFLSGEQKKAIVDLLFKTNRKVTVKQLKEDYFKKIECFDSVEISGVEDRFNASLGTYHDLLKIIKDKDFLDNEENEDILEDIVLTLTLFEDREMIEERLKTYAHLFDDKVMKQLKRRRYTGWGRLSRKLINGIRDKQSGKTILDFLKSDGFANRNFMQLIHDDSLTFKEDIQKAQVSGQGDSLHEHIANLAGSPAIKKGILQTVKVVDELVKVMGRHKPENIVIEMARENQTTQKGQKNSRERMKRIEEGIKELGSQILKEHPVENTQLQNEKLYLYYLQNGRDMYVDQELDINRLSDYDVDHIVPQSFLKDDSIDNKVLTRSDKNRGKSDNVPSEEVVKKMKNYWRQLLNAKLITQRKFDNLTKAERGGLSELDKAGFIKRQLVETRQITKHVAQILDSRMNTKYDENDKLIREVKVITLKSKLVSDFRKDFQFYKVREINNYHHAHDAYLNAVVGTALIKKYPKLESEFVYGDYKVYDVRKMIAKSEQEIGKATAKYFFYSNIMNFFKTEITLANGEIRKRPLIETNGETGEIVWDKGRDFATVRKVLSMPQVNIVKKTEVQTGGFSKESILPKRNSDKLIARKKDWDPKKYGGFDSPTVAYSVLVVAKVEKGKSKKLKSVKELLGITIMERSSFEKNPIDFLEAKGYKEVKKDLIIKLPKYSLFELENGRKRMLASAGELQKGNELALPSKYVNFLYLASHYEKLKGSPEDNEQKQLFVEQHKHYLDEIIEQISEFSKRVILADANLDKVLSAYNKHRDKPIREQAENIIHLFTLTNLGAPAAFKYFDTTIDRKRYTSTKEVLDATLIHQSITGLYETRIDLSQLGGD
T1 sequence (A0Q5Y3 whole entry): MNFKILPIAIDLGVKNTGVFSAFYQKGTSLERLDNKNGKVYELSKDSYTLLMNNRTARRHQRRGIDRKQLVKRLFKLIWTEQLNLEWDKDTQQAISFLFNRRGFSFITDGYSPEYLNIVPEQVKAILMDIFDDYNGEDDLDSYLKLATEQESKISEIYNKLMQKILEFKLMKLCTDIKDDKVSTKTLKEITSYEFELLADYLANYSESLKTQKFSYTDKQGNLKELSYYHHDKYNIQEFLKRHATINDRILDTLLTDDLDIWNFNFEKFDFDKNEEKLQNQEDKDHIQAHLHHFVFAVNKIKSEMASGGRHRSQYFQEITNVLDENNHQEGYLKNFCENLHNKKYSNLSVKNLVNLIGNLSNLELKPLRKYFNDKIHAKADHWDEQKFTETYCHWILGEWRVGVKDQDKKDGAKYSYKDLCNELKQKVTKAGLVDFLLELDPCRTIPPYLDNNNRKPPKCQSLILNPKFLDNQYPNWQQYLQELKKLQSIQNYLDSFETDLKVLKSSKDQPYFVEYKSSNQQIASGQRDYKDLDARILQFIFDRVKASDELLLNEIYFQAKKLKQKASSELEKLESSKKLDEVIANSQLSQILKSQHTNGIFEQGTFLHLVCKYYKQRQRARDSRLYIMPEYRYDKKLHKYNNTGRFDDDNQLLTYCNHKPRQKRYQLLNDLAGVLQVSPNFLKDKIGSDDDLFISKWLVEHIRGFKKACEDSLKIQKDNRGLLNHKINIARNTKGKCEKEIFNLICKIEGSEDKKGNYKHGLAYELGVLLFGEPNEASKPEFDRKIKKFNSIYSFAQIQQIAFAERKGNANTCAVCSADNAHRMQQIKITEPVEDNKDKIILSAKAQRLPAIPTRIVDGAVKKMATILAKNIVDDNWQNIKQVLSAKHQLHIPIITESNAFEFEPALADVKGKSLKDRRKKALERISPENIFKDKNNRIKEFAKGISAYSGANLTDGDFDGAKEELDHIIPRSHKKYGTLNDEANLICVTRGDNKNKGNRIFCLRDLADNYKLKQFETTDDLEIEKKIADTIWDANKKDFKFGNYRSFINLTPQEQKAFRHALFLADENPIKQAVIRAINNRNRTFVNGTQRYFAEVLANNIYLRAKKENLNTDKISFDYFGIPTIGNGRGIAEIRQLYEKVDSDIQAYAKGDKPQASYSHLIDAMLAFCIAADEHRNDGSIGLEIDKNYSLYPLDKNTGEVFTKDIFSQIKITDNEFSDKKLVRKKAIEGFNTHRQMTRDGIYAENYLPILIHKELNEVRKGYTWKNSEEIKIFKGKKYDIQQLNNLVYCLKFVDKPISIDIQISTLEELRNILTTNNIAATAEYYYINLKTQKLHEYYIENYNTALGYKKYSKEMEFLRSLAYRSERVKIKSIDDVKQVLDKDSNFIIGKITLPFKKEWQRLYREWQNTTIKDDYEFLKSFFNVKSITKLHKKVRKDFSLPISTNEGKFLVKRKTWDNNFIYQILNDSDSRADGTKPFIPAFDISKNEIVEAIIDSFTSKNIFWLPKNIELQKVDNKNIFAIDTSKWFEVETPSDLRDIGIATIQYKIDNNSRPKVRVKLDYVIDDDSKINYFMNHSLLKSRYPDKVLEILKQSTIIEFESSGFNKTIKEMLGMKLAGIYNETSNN

B1: FnoCas9 crRNA-tracrRNA (structured_RNA)
RNA 1: GGGAUAACUCAAUUUGUAAAAAAGUUUCAGUUGCUGAAUUAUUUGGUAAAC
RNA 2: GGGCCAAAUAAUUAAUGCUCUGUAAUCAUUUAAAAGUAUUUUGAACGGACCUCUGUUUGACACGUCUGAAUAACUAAAAAGCAAAAAUUUGCCACCUAAGUGGCUUUUUUU
In the case of B1, in the data set with FnoCas9 [1], the binding result is reported as “binds”.

B2: 60-mer ss oligo (197-FR) (ssDNA)
DNA: AGCAGATTGTACTGAGAGTGCACCATATGCGGTGTGAAATACCGCACAGATGCGTAAGGA
As to B2, the binding result with SpyCas9 [2] and with FnoCas9 [3] was “binds” in each case.

B3: SpyCas9 sgRNA (structured_RNA)
RNA: GGGAUUUCUUCUUGCGCUUUUUGUUUUAGAGCUAUGCUGUUUUGGAAACAAAACAGCAUAGCAAGUUAAAAUAAGGCUAGUCCGUUAUCAACUUGAAAAAGUGGCACCGAGUCGGUGCUUUUUU
On to B3, for which, in the data set with SpyCas9 [4], the binding result is on record as “binds”.
